The values below come from patent publication US20240084003A1 (SIMCERE ZAIMING PHARMACEUTICAL, published 2024).

Numbering of substitutions follows the chain as printed.

T1: monkey CD22 on HEK293T-monkey CD22 cells (monkey)
T1 construct: full-length entry expressed on stably transfected HEK293T cells
T1 chain: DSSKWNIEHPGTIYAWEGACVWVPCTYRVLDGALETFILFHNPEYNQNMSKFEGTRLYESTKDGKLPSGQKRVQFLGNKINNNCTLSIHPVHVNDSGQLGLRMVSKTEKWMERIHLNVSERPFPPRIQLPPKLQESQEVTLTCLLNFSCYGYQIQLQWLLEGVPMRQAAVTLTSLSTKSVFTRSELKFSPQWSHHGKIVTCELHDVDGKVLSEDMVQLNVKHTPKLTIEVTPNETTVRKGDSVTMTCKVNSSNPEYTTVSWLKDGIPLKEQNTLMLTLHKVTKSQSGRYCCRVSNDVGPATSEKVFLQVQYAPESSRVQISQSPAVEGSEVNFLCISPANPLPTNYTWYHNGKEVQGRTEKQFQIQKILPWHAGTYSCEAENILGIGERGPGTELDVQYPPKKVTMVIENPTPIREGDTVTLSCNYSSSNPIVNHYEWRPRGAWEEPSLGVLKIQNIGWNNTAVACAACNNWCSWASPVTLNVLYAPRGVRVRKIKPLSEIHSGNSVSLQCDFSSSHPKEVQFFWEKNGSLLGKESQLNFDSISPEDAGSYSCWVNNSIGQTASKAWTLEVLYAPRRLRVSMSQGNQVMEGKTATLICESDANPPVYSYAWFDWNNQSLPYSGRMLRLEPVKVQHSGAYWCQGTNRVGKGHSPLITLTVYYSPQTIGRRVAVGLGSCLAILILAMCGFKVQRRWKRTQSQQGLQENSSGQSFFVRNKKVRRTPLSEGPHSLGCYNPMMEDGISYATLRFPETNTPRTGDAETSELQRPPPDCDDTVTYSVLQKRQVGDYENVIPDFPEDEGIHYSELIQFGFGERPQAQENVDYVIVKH

T2: human CD22 domain5-7-His (human, UniProt P20273 414-687)
T2 construct: also called hCD22 domain5-7-His; not shown: His tag
T2 sequence: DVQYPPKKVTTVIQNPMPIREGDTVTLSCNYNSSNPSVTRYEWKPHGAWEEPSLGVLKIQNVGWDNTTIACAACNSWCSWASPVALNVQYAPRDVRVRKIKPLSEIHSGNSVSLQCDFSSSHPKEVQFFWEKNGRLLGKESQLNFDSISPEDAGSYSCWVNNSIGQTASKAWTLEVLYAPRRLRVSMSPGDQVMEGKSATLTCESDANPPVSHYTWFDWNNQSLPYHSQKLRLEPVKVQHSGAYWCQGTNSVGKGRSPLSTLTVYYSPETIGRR

B1: F2.343.16 (antibody, human IgG1, lambda, V domains shown)
VH: QVQLKQSGPGLVQPSQSLSITCTVSGFSLTGYGVQWVRQSPGKGLEWLGVIWGGGGTDYNAAFISRLNIIKDNSKSQVFFKMNSLQADDTAIYYCARYSKYGHFDVWGTGTAVTVSS
VL: QAVVTQESALTTSPGETVTLTCRSSTGAVTTSNYANWVQEKPDHLFTGLIGGTYNRVPGVPARFSGSLIGDKAALTITGAQTEDEAIYFCALWYSNHFWVFGGGTKLTVLG
notes: human-murine chimeric IgG1 lambda; VL name legible
B2: F2.55.1 (antibody, human IgG1, lambda, V domains shown)
VH: QVTLKESGPGILQPSQTLSLTCSFSGFSLSTFPLGVGWIRQPSGKGLEWLAHVWWNDDDYYNPALKSRLTISKDTSNTRVFLSVASVDTAETATYYCARLNWDRWYFDVWGTGTTVTVSS
VL: QLVLTQSSSASFSLGASAKLTCTLSSQHSAYTVEWYQQQPLKPPKYVMELKKDGSHSTGDGIPDRFSGSSSGADRYLSISNIQPEDEAIYICGVGDTVKEQFVFGGGTKVTVLG
notes: as for B1
B3: F2.205.9 (antibody, human IgG1, lambda, V domains shown)
VH: QVTLKESGPGILQPSQTLSLTCSFSGFSLSTSGMGVGWIRQPSGKGLEWLAHIWWDDDEYYNPALKSRLTISKDTSKNQVFLKIANVDTADTATYYCARISIPYGYYDWFFDVWGTGTTVTVSA
VL: QAVVTQESALTTSPGETVTLTCRSSTGAVTTRNYANWVQEKPDHLFTGLIGGTNNRAPGVPARFSGSLIGDKAALTITGAQTEDEAIYFCALWYSNHFIFGSGTKVTVLG
notes: as for B1
B4: F2.151.13 (antibody, human IgG1, lambda, V domains shown)
VH: QVHLQQPGTELMKPGASVKLSCKATGYTFRDYWLEWVKQRPGHGLEWIGEILPGSGNAYYNEKFKGKATFTADTSSNTAYMQLSSLTTEDSAIYYCARVYSNWYFDAWGKGTTVTVSS
VL: B3 VL with R32S, R56Q, T78S, Y94F, F98W, I99V, S102G, V106L
notes: human-murine chimeric IgG1 lambda
B5: HA22-hIgG1 (antibody, V domains shown)
VH: EVQLVESGGGLVKPGGSLKLSCAASGFAFSIYDMSWVRQTPEKCLEWVAYISSGGGTTYYPDTVKGRFTISRDNAKNTLYLQMSSLKSEDTAMYYCARHSGYGTHWGVLFAYWGQGTLVTVSA
VL: DIQMTQTTSSLSASLGDRVTISCRASQDISNYLNWYQQKPDGTVKLLIYYTSILHSGVPSRFSGSGSGTDYSLTISNLEQEDFATYFCQQGNTLPWTFGCGTKLEIKR
B6: F2.70.2 (antibody, human IgG1, lambda, V domains shown)
VH: EVQLVESGGGLVKPGGSLKLSCAASGFTFSDYGMNWFRQAPEKGLEWVAYISRGSHTIYYADTVKGRFTISRDNAKNTLFLQMTSLRSNDTAMYYCVRMAGYYAMDYWGQGTSVTVSS
VL: QLVLTQSSSASFSLGASAKLTCTLSSQHSSYIIEWYQQQPLKPPKYVMELKKDGSHSTGDGIPDRFSGSSSGADRYLSISNIQPEDEAIYICGVGDTIKEQFVYVFGGGTKVTVLG
notes: as for B4
B7: F2.173.9 (antibody, human IgG1, lambda, V domains shown)
VH: EVQLVESGGDLVKPGESLKLSCEASGFTFSNYAMSWVRQTPDRRLEWVATISSIGSFTYYSDSVKGRFTISRDNVKSTLHLQMNNLKSGDTAIYFCARLGVYFDSWGQGTTLTVSS
VL: B6 VL with S30T, I32T, L41H, Y46F, L50I, S57Y, A88T, G95S, T97M, E100D
notes: as for B4
B8: F2.180.16 (antibody, human IgG1, lambda, V domains shown)
VH: EVKLVESGGGLVLPGGSLKISCAASGFTFSDYYMYWIRQTPDKRLEWVAYISNTGYSTFYPDSVKGRFTVSRDNAKNTLYLQMSRLQSEDTAMYYCARHGILYAMDYWGQGTSVTVSS
VL: B6 VL with L2P, H28Y, S30T, I32T, E34G, K52H, H56R, S57H, I89T, V103M
notes: as for B4
B9: F2.104.10 (antibody, human IgG1, lambda, V domains shown)
VH: B6 VH with L11F, K76E, V114L
VL: B6 VL with L50V, P84S
notes: as for B4
B10: F2.121.9 (antibody, human IgG1, lambda, V domains shown)
VH: EVQLVESGGGLVKPGGSLKLSCAASGFTFSDYVMSWIRQTPEKRLEWVATISDAGSYTFYPDNLKGRFTISRDNAKNNLYLQMNHLTSEDTAFYYCAIIYFGNYGGYWGQGTLVTVSV
VL: QAVVTQESALTTSPGGTVVLTCRSNTGAVTTSNYANWVQEKPDHLFTGLIGGTSNRAPGVPVRFSGSLIGDKAALTITGAQTEDDAMYFCALWYSTHWVFGGGTKLTVLG
notes: as for B4
B11: F1.245.2 (antibody, human IgG1, kappa, V domains shown)
VH: EVQLQQSGAELVKPGASVKLSCTGSGFNIKDYYIHWVKQRTEQGLEWMGRIDPEDGETEYAPKFQDEATITSDTSSNTAYLQLSSLTYEDTAVYYCAREAAGYFYRGSSYGYFDVWGTGTTVTVSS
VL: DFQMTQTTSFLSASLGDRVTISCSASQDISNYLNWYQQKPDGTVKLLIYYTSSLHSGVPSRFSGSGSGTDYSLTISNLEPEDIATYYCQQYSMLPYTFGGGTKLEMER
notes: human-murine chimeric IgG1 kappa
B12: F1.60.9 (antibody, human IgG1, kappa, V domains shown)
VH: QVQLKESGPGLVAPSQSLSITCTVSGLSLNNYGVSWVRQPPGKGLEWLGVIWGDGSTNYHSALISRLSISKDNSKSQVFLKLNSLHTDDTATYYCAINWGDYWGQGTTLIVSS
VL: DIKMTQSPSSMNASLGERVTITCKASQDINSYLSWFQQKPGKSPKILIYRANRLIDGVPSRFSGSGSGQDYSLTISSLEYEDMGIYYCLQYGVFPLTFGAGTKLELKR
notes: as for B11
B13: F1.257.3 (antibody, human IgG1, kappa, V domains shown)
VH: QVQLQQSGPELARPGASVKLSCKASGYTFTSYGISWVKQRTGQDLEWIGEIYPKLGTTYYNEKFKDKATLTTDRSSSTAYMALRSLTSEDSAVYFCACPHYYATRGGDYWGQGTTLTVSS
VL: EIVLTQSPATLSVTPGDSVTFSCRASQSISNHLHWYQQKSHESPRLLIRYASQSISGIPSRFSGSGSGTDFTLSLSSVETEDFGVYFCQQSHSWPYTFGGGTKLEIAR
notes: human-murine chimeric IgG1 kappa; VL name legible
B14: F2.55.1 (antibody, human IgG1, lambda, V domains shown)
VH: B2 VH
VL: B2 VL
notes: Human-murine chimeric IgG1, lambda

For the first experiment, the target named is T1, monkey CD22 on HEK293T-monkey CD22 cells. Nature of the experiment: FACS, HEK293T-monkey CD22 cells. As to the method:
(§1) For suspension cell Raji, the medium supernatant was directly centrifuged and discarded, and the cell pellet was washed 2 times with PBS. After counting the cells in the previous step, the cell pellet was resuspended with [PBS+2% (w/w) BSA] blocking solution to 2×10⁶ cells/ml, and added to a 96-well FACS reaction plate at 50 μl/well, and then the chimeric antibody test sample was added at 50 μl/well, and incubated on ice for 2 hours. The mixture was centrifuged and washed 3 times with PBS buffer, Alexa Flour 488-labeled secondary antibody (purchased from Invitrogen, catalog number: A-11013) was added at 50 μl/well, and incubated on ice for 1 hour. The obtained mixture was centrifuged and washed 5 times with PBS, and FACS (FACS Canto™, purchased from BD Company) was used for detection and result analysis. Data analysis was performed by software (CellQuest) to obtain the mean fluorescence density (MFI)of the cells. And then software (GraphPad Prism8) was used for analysis, data fitting, and EC50 value calculation. […] The same method was used to detect the binding of the chimeric antibodies to endogenous CD22-negative cell MoLT4 cells (purchased from ATCC, CRL-1582) and CHO-K1 cells.
(§2) HEK293T-monkey CD22 cells were subjected to FACS detection and data analysis according to the method in Example 5.2.
For B1, the “Maximum mean fluorescence intensity” value came to 83 MFI.
On to B2, for which the EC50 was found to be 34.7 nM and the “Maximum mean fluorescence intensity” value was 5760 MFI.
The corresponding values for B3 are 0.4 nM and 25400 MFI.
B4: a half-maximal response (EC50) required 1.26 nM and the “Maximum mean fluorescence intensity” value came to 30500 MFI.
Taken in the same sequence, the figures for B5 were 1.59 nM and 31200 MFI.
Consider B6, for which the “Maximum mean fluorescence intensity” value was 409 MFI.
Consider B7, for which the EC50 is 2.1 nM and the “Maximum mean fluorescence intensity” value came out at 22700 MFI.
For the molecule B8, the “Maximum mean fluorescence intensity” value is 69 MFI.
Turning to B9, the “Maximum mean fluorescence intensity” value stood at 251 MFI.
Regarding B10, a half-maximal response (EC50) required 0.97 nM and the “Maximum mean fluorescence intensity” value turned out to be 19900 MFI.

Another experiment shares this target. Nature of the experiment: FACS, HEK293T-monkey CD22 cells, EC50 column. As to the method: as §1, §2
Take B1: the binding result is reported as “no binding”.
As to B11, the binding result is recorded as “no binding”.
With B12, the binding result is given as “no binding”.
Take B6: the binding result is reported as “no binding”.
Regarding B8, the binding result is recorded as “no binding”.
For the molecule B9, the binding result is given as “no binding”.
With B13, the binding result is “no binding”.

The target in the next experiment is T2, human CD22 domain5-7-His. Nature of the experiment: ELISA, human CD22 domain5-7-His coated.
In the case of B14, the binding result was “no binding (tested: 100 nM)”.
